# Source: IntAct's records for PubMed 29281743
# B1: Protein deacetylase HDAC6 (Homo sapiens), Q9UBN7 (parent)
# chain: MTSTGQDSTTTRQRRSRQNPQSPPQDSSVTSKRNIKKGAVPRSIPNLAEVKKKGKMKKLGQAMEEDLIVGLQGMDLNLEAEALAGTGLVLDEQLNEFHCLWDDSFPEGPERLHAIKEQLIQEGLLDRCVSFQARFAEKEELMLVHSLEYIDLMETTQYMNEGELRVLADTYDSVYLHPNSYSCACLASGSVLRLVDAVLGAEIRNGMAIIRPPGHHAQHSLMDGYCMFNHVAVAARYAQQKHRIRRVLIVDWDVHHGQGTQFTFDQDPSVLYFSIHRYEQGRFWPHLKASNWSTTGFGQGQGYTINVPWNQVGMRDADYIAAFLHVLLPVALEFQPQLVLVAAGFDALQGDPKGEMAATPAGFAQLTHLLMGLAGGKLILSLEGGYNLRALAEGVSASLHTLLGDPCPMLESPGAPCRSAQASVSCALEALEPFWEVLVRSTETVERDNMEEDNVEESEEEGPWEPPVLPILTWPVLQSRTGLVYDQNMMNHCNLWDSHHPEVPQRILRIMCRLEELGLAGRCLTLTPRPATEAELLTCHSAEYVGHLRATEKMKTRELHRESSNFDSIYICPSTFACAQLATGAACRLVEAVLSGEVLNGAAVVRPPGHHAEQDAACGFCFFNSVAVAARHAQTISGHALRILIVDWDVHHGNGTQHMFEDDPSVLYVSLHRYDHGTFFPMGDEGASSQIGRAAGTGFTVNVAWNGPRMGDADYLAAWHRLVLPIAYEFNPELVLVSAGFDAARGDPLGGCQVSPEGYAHLTHLLMGLASGRIILILEGGYNLTSISESMAACTRSLLGDPPPLLTLPRPPLSGALASITETIQVHRRYWRSLRVMKVEDREGPSSSKLVTKKAPQPAKPRLAERMTTREKKVLEAGMGKVTSASFGEESTPGQTNSETAVVALTQDQPSEAATGGATLAQTISEAAIGGAMLGQTTSEEAVGGATPDQTTSEETVGGAILDQTTSEDAVGGATLGQTTSEEAVGGATLAQTTSEAAMEGATLDQTTSEEAPGGTELIQTPLASSTDHQTPPTSPVQGTTPQISPSTLIGSLRTLELGSESQGASESQAPGEENLLGEAAGGQDMADSMLMQGSRGLTDQAIFYAVTPLPWCPHLVAVCPIPAAGLDVTQPCGDCGTIQENWVCLSCYQVYCGRYINGHMLQHHGNSGHPLVLSYIDLSAWCYYCQAYVHHQALLDVKNIAHQNKFGEDMPHPH
# Variants of: B1
# Details: with myd88_human MYD88, Q99836
# Sequence of myd88_human MYD88, Q99836 (Q99836 whole entry): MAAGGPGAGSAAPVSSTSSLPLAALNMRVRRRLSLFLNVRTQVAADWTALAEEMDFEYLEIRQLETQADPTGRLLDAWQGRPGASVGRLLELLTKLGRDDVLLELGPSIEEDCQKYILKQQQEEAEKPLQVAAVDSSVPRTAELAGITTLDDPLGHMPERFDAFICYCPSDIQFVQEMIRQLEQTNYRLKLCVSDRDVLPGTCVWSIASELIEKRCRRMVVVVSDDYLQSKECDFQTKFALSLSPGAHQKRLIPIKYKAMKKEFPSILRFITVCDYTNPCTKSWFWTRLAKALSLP
row,effect of a mutation on the interaction,Variant
1,with no effect,H216A;H611A
